{"source": "patent US20080267976A1", "about": "(published 2008)", "binders": {"B1": {"name": "H3.69_V2/L3.71 AC10 IgG(1/2) ELLGG antibody (XmAb2513) (antibody)", "heavy": "QVQLVQSGAEVKKPGASVKVSCKVSGYTFTDYYITWVRQAPGQALEWMGWIYPGSGNTKYSQKFQGRFVFSVDTSASTAYLQISSLKAEDTAVYYCANYGNYWFAYWGQGTLVTVSSASTKGPSVFPLAPSSKSTSGGTAALGCLVKDYFPEPVTVSWNSGALTSGVHTFPAVLQSSGLYSLSSVVTVPSSSLGTQTYICNVNHKPSNTKVDKKVEPKSCDKTHTCPPCPAPELLGGPDVFLFPPKPKDTLMISRTPEVTCVVVDVSHEDPEVQFNWYVDGVEVHNAKTKPREEQFNSTFRVVSVLTVVHQDWLNGKEYKCKVSNKALPAPEEKTISKTKGQPREPQVYTLPPSREEMTKNQVSLTCLVKGFYPSDIAVEWESNGQPENNYKTTPPMLDSDGSFFLYSKLTVDKSRWQQGNVFSCSVMHEALHNHYTQKSLSLSPGK", "light": "EIVLTQSPDSLAVSLGERATINCKASQSVDFDGDSYLNWYQQKPGQPPKVLIYAASTLQSGVPSRFSGSGSGTDFTLTINSLEAEDAATYYCQQSNEDPWTFGGGTKVEIKRTVAAPSVFIFPPSDEQLKSGTASVVCLLNNFYPREAKVQWKVDNALQSGNSQESVTEQDSKDSTYSLSSTLTLSKADYEKHKVYACEVTHQGLSSPVTKSFNRGEC"}}, "target": "extracellular region of human V158 FcγRIIIa fused with glutathione S-Transferase (GST) (human;, UniProt P08637 17-208)", "sequence (P08637 17-208 F176V)": "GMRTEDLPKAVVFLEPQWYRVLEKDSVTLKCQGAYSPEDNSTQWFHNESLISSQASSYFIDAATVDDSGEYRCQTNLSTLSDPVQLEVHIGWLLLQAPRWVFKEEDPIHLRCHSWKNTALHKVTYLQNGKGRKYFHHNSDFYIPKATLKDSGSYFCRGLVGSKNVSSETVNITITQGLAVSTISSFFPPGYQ", "assay": "competition AlphaScreen", "data": [{"binder": "B1", "values": [{"measurement": "IC50", "result": 38, "unit": "nM"}]}]}
